From paper PMC2120187

Molecular target: murine IgG heavy chain (murine)
Test: immunoprecipitation with anti-mouse IgG and non-reducing SDS-PAGE

stoichiometry N: 2
Substance: murine IgG heavy chain
